The text below walks through data of PMC9334453.

The target of the assay is murine monoclonal IgE antibody 2F5 (anti-profilin Hev b 8). Nature of the assay: ELISA. The note with it: chain shown with the change; n = 4; parent: est. 0.26; read off a plot.

B1: recombinant maize profilin (rZea m 12) E128D (protein)
chain: GMSWQAYVDDHLLCDIEGQHLSAAAIVGHDGSVWAQSENFPELKPEEVAGMIKDFDEPGTLAPTGLFVGGTKYMVIQGEPGVVIRGKKGTGGITIKKTGMSLIIGIYDEPMTPGQCNMVVERLGDYLIDQGF
In the case of B1, the response was determined as 0.4 Abs 405nm.
